For experiment [1], the target named is EGFP-vinculin (UniProt P18206). The experiment can be described thus: FRET or BRET.
The target in experiment [2] is mTFP1-vinculin (UniProt P18206). The experiment can be described thus: FRET or BRET.

On to “RIAM-mScarlet (RIAM C-terminally tagged with mScarlet-I) (from UniProt Q7Z5R6 1-666) (natural protein)”, for which the FRET efficiency in experiment [1] amounted to 13.5. As for “mScarlet-RIAM (RIAM N-terminally tagged with mScarlet-I) (from UniProt Q7Z5R6 1-666) (natural protein)”, the FRET efficiency in experiment [1] is 16.4; in experiment [2], 20%.
